From publication PMC9805813 (Biochemistry, 2021)
Substitutions are numbered along the chain they refer to. In names and notes the source's numbering stands.

B1: mCh-ParD1(42-75) (domain or fragment)
chain: RQQWQVAAIDEGLADANAGRLLEHIEIEKRWGLQ
B2: mCherry fused to full length ParD1 (natural protein, Pseudomonas aeruginosa, UniProt Q9I707 1-75, looked up)
chain: MSTVVSFRADDALVAALDELARATHRDRPYHLRQALAQYLERQQWQVAAIDEGLADANAGRLLEHIEIEKRWGLQ
B3: PaParD1 I68A, His-tagged (natural protein, Pseudomonas aeruginosa, UniProt Q9I707 1-75, looked up)
chain: B2 chain with I68A
B4: PaParD1 antitoxin, wild type, His-tagged (natural protein)
chain: B2 chain

Key:
PaParE1 toxin, wild type = target: T1, PaParE1 toxin, wild type (Pseudomonas aeruginosa, UniProt Q9I708 1-93); experiment: BLI
T1 sequence: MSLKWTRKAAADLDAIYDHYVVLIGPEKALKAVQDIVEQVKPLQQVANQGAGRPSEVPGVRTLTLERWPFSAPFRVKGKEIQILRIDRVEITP

SEC-MALS = target: the molecule itself; experiment: SEC-MALS

Binder | Kd (PaParE1 toxin, wild type) [pM] | stoichiometry N (SEC-MALS)
B1 | 828 ± 550 | –
B2 | 225 ± 6.8 | –
B3 | – | 2
B4 | – | 2
